Data as given in article PMC314469, “Protein Interaction Networks by Proteome Peptide Scanning” (PLoS Biology, 2004).

T1: Boi2 SH3 (BOI2_YEAST), P39969
T1 chain: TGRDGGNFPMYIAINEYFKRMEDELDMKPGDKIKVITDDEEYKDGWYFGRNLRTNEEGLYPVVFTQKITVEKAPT

T2: Rvs167 SH3 (RV167_YEAST), P39743
T2 chain: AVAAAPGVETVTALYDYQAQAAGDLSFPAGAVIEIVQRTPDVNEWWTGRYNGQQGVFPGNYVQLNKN

T3: Yfr024 SH3 (LSB3_YEAST), P43603
T3 chain: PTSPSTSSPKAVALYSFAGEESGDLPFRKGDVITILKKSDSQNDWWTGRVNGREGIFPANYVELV

T4: Yhr016c SH3 (YSC84_YEAST), P32793
T4 chain: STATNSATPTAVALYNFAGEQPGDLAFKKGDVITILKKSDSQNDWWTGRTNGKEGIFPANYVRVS

T5: Boi1 SH3 (BOI1_YEAST), P38041
T5 chain: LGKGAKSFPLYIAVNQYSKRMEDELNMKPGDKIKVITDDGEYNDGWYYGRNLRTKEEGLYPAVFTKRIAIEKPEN

T6: Myo5 SH3 (MYO5_YEAST), Q04439
T6 chain: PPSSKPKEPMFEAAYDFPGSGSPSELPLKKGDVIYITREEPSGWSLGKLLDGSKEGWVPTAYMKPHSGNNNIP


Legend:
Assay in all cases: SPOT array
[1] = biological target: T1, Boi2 SH3 (BOI2_YEAST), P39969
[2] = biological target: Sho1 SH3 (SHO1_YEAST), P40073
[3] = biological target: T2, Rvs167 SH3 (RV167_YEAST), P39743
[4] = biological target: T3, Yfr024 SH3 (LSB3_YEAST), P43603
[5] = biological target: T4, Yhr016c SH3 (YSC84_YEAST), P32793
[6] = biological target: T5, Boi1 SH3 (BOI1_YEAST), P38041
[7] = biological target: T6, Myo5 SH3 (MYO5_YEAST), Q04439

Sequence of Sho1 SH3 (SHO1_YEAST), P40073 (P40073 295-366): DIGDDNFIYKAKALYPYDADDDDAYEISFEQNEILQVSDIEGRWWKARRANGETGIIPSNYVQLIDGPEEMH

Row | Binder | normalised SPOT signal, Boehringer light units (BLU); mean over the file's lines of this peptide [1] | normalised SPOT signal, Boehringer light units (BLU); mean over the file's lines of this peptide [2] | normalised SPOT signal, Boehringer light units (BLU); mean over the file's lines of this peptide [3] | normalised SPOT signal, Boehringer light units (BLU); mean over the file's lines of this peptide [4] | normalised SPOT signal, Boehringer light units (BLU); mean over the file's lines of this peptide [5] | normalised SPOT signal, Boehringer light units (BLU); mean over the file's lines of this peptide [6] | normalised SPOT signal, Boehringer light units (BLU); mean over the file's lines of this peptide [7]
1 | ELDTKTIPELPFSM [YJR092W 117-130] | 24.8 | 44.1 | 98.8 | 27.4 | 12.8 | -0 | 53.2
2 | EIAKRLQPGSPVLG [YHR047C 776-789] | 8.9 | 22 | 116 | 126 | 58.7 | 26.9 | 172
3 | ELDIKQGPVRPFIV [YDL095W 18-31] | 33.2 | 27.9 | 24.5 | 41.1 | 17.8 | 86.2 | 161
4 | EKVFRGDPEHPAIS [YJR010W 130-143] | 15.1 | 75.6 | 66.3 | 48.5 | 67.9 | 17400 | 90
5 | ELQIRYKPTPPLKK [YPL074W 331-344] | 17.3 | 76.5 | 188 | 930 | 42.2 | 87.9 | 171
6 | EKYGKDQPESPVPE [YMR285C 368-381] | 12.1 | 66.3 | 41.8 | 0 | 1.6 | 62.1 | 143
7 | ENENKKLPPAPTVF [YKR103W 236-249] | 12.9 | 3520 | 22 | 16.2 | 24.6 | 50.9 | 67.7
8 | EIPSKDHPYDPEKD [YGR020C 93-106] | 7.3 | 31.1 | 0 | 0 | 6 | 51.8 | 51.8
9 | EKELKEGPSSPASI [YJL076W 376-389] | 13.1 | 61.7 | 41.1 | 0 | 28.2 | 46.3 | 208
10 | EHLQKERPKPPNKG [YOR233W 329-342] | 29.7 | 54.5 | 112 | 824 | 55.1 | 744 | 364
11 | EGTTKVDPIIPVPE [YJR122W 96-109] | 1.6 | 70.4 | 53.1 | 0 | 0 | 57.3 | 180
12 | EKLIKITPDTPFGF [YOR340C 102-115] | 19.1 | 36.8 | 46.5 | 61.9 | 34.6 | 0 | 206
13 | EIKDRDQPAVPPSP [YOL047C 317-330] | 20.6 | 20.2 | 67.9 | 8.7 | -0 | 5.1 | 108
14 | EKNARGIPQAPFIE [YGR078C 9-22] | 10.5 | 24.1 | 33.4 | 202 | 42.5 | 48.1 | 136
15 | EKESRHYPIKPPSP [YMR147W 121-134] | 20.2 | 44.6 | 72.2 | 31.6 | 39.7 | 64.2 | 180
16 | EKEAKSEPQQPEDN [YML010W 68-81] | 17.9 | 53.3 | 19.4 | -0 | 8.8 | 22.6 | 139
